Assay results reported in the supplement of paper PMC9170038.

Test system: MS2 coat protein
Test: apparent KD of MS2 coat protein; designed switch direction (-1 OFF switch, 1 ON switch): 1; higher = weaker reporter binding
Summary of the method: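 The apparent KD reported per design is the median over clusters of curve fits to normalised cluster fluorescence. The RNA switches were transcribed on Illumina chips by stalled E. coli RNA polymerase. SNAP-549-labelled MS2 coat protein was titrated from 0.7 or 1.5 nM, doubling up to 3 µM, in Tris-HCl pH 7.5 buffer containing KCl, MgCl2, BSA, DTT, tRNA and Tween-20, with no input, 200 uM small-molecule ligand, or an oligonucleotide input.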

[1] = input ligand: microRNA oligo, concentration not stated
[2] = Eterna round: R95, input ligand: FMN 200 uM
[3] = Eterna round: R95, input ligand: microRNA oligo, concentration not stated
[4] = Eterna round: R95, input ligand: none

Sequence | apparent KD of MS2 coat protein (input ligand: FMN 200 uM) | apparent KD of MS2 coat protein [1] | apparent KD of MS2 coat protein (input ligand: none) | apparent KD of MS2 coat protein [2] | apparent KD of MS2 coat protein [3] | apparent KD of MS2 coat protein [4]
GAAAGCAUGGGAGGAUAUAGCCUCUAUGGAGGGCUAGAAGGCCCUGGCCACAUGAGGAUCACCCAUGUGAAAUAAAUAGAAGAA [MOD Raarceza] (Eterna round: R96, puzzle: Same State NG 1) | 453 nM | 2.74 nM | 188 nM | – | – | –
GCGAGCGUACUUGCAGACAUGAGGAUCACCCAUGUAACUGGACAGGAUAUGGUACCGUUUCGGUACCAGAAGGGUUUAUUCAUG [JL SSNG3 3.56] (Eterna round: R96, puzzle: Same State NG 3) | 83.4 nM | 63.5 nM | 56.2 nM | – | – | –
GGCGAACAGGCCGACAUGAGGAUCACCCAUGUGGCCUCAUGUCAGGAUAUCGGGAAGGAGGAAACCGAGAAGGGACGGUGAGCC [AK SSNG3-V2-44] (Eterna round: R96, puzzle: Same State NG 3) | 88.9 nM | 5.6 nM | 65.1 nM | – | – | –
GUAGCAUACCGAGGAUAUUCAUAUUAAAUACAUGAGGAUCACCCAUGUAAGGCCAAAAGGCCUUGGGAGAAGGCGGAAUGCUAC [Xeonanis - 20 Mod3] (Eterna round: R96, puzzle: Same State NG 2) | 20.7 nM | 32.5 nM | 67.3 nM | – | – | –
ACAUGAAAUUCAGGAUAUUUUGUACCUACAUGUGACAUGAGGAUCACCCAUGUGGUAAGUAUGAGAAAGAAGGGAAAGAUAUGU [Equivalence 10 - Jieux - Same State NG 2] (Eterna round: R96, puzzle: Same State NG 2) | 25.4 nM | 41.9 nM | 45.6 nM | – | – | –
AUAAGGCAAGCUUUUUUCUCGUAGUGUAAACAUGAGGAUCACCCAUGUGCCCACCCUGGAUCUUUGGAUCGCGGAAC [Raxesori] (puzzle: Sensor for hsa-mir-208a) | – | – | – | 83.6 nM | 27.1 nM | 104 nM
GGCAGGUGCAGGCUUGCUUGCACCUGGAAACAUGAGGAUCACCCAUGUUUGGGACAAGCUUUGCUCUUCGUUUUGUC [JL ViennaUCT Isusreraar mod 4] (puzzle: Sensor for hsa-mir-208a) | – | – | – | 35.3 nM | 40.4 nM | 47 nM
AAGAGAGAAAUACAGGAUAUGAGGAAAGGAACAUGAGGAUCACCCAUGUAAGAGAAAGGGAAAGAUCAGAAGGGUAGAGAAGAGA [JR_SS2_Sub001] (puzzle: Same State 2) | – | – | – | 76.6 nM | 66.1 nM | 264 nM
UGUUGUAUUACAGGAUAUCUAGUAGUUUUAUUUAGAGAAGGGUAUUCACAUGAGGAUCACCCAUGUAUAUACGAGGAAGUUGUG [JMF's solution 36] (Eterna round: R96, puzzle: Same State NG 1) | – | 29.7 nM | – | – | – | –
GAUCGUUUGAUAGGAUAUCGCUAUACAUGAGGAUCACCCAUGUUUACCACGCUGGUUUUUCAUACCGAGAAGGAUUCUGAUGAA [salish99_SSNG02_r04_010] (Eterna round: R96, puzzle: Same State NG 2) | 27.5 nM | 27.8 nM | 30.7 nM | – | – | –
UAAGUAUGUUGAGGAUAUUAUGUCAAGAGAGAUGACAUGAGGAUCACCCAUGUGUGAAGAGGAUUUAAGAAGGCAACAUACUUA [JR_SSNG2_Sub090] (Eterna round: R96, puzzle: Same State NG 2) | 39.9 nM | 47.7 nM | 66.7 nM | – | – | –
GAAGAACAUGAGGAUCACCCAUGUAAGCGGAAGCUAGGAUAUGCGGGAAAGAAAAGAGAAGCAGAAGGAGUAGGAA [JR_SS1_Sub028] (puzzle: Same State 1) | – | – | – | 33 nM | 44.7 nM | 68.2 nM
AAAAAACAUGAGGAUCACCCAUGUAAAAAAAUGGGAGGAUAUACAAAAACGAAAGUCAAAGUAGAAGGCCUGAAAA [same state 5] (Eterna round: R96, puzzle: Same State 1) | – | 78.6 nM | – | – | – | –
